From patent US20210253718A1, “FRIZZLED5 PROTEIN-BINDING AGENTS” (Modmab Therapeutics Corporation, priority 2016, published 2021) come the findings set out here.

Changes are numbered by the printed parent chain.

For test [1], the target named is T1, FZD4 CRD (Homo sapiens, UniProt Q9ULV1).
T1 construct: E42-V167; GPI anchor signal (C); expressed in transfected cells; host or cells: CHO cells, lentiviral pLenti-puro
T1 sequence (Q9ULV1 42-167): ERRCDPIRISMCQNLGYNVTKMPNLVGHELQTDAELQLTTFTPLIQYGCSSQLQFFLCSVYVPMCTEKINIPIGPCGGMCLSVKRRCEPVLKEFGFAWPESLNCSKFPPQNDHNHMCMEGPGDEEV
The experiment in a line: Flow cytometry of anti-FZD5 Fab binding to CHO cells overexpressing Frizzled CRD. In outline: (§1)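 CHO lines each expressing a different human Frizzled CRD, myc-tagged and GPI-anchored at the surface, stained with 200 nM Fab, then Alexa Fluor 488 F(ab′)2 secondary. Dead cells excluded by viability dye; anti-c-Myc staining served as expression control. Binding read by flow cytometry.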

Test [2] concerns the target T2, FZD2 CRD (Homo sapiens, UniProt Q14332).
T2 construct: D35-P161; GPI anchor signal (C); expressed in transfected cells; host or cells: CHO cells, lentiviral pLenti-puro
Described as above. In outline:
as §1

B1: Fab-2906: anti-FZD5 Fab with antibody variable region Fv-2906; CDR SEQ ID NOs: 35, 36, 45, 84, 121, 158 (antibody, V domains shown)
VH: EVQLVESGGGLVQPGGSLRLSCAASGFNFSSSSIHWVRQAPGKGLEWVAYISSSYGYTYYADSVKGRFTISADTSKNTAYLQMNSLRAEDTAVYYCARTVRGSKKPYFSGWAMDYWGQGTLVTVSS
VL: DIQMTQSPSSLSASVGDRVTITCRASQSVSSAVAWYQQKPGKAPKLLIYSASSLYSGVPSRFSGSRSGTDFTLTISSLQPEDFATYYCQQWSWGFLITFGQGTKVEIK
Take B1: the “Median fluorescence, Frizzled CRD overexpressed on CHO cells: FZD4” value (“Median fluorescence … FZD4” for short) in test [1] stood at 12.3.

B2: Fab-2933: anti-FZD5 Fab with antibody variable region Fv-2933; CDR SEQ ID NOs: 35, 36, 72, 109, 148, 177 (antibody, V domains shown)
VH: B1 VH with F29L, S30Y, S33Y, I34M, Y50S, S52Y, Y59S
VL: DIQMTQSPSSLSASVGDRVTITCRASQSVSSAVAWYQQKPGKAPKLLIYSASSLYSGVPSRFSGSRSGTDFTLTISSLQPEDFATYYCQQFWWYASWLFTFGQGTKVEIK
Consider B2, for which, in test [2], the “Median fluorescence, Frizzled CRD overexpressed on CHO cells: FZD2” value (“Median fluorescence … FZD2” below) turned out to be 9.82.

B3: Fab-2899: anti-FZD5 Fab with antibody variable region Fv-2899; CDR SEQ ID NOs: 35, 36, 38, 77, 114, 153 (antibody, V domains shown)
VH: EVQLVESGGGLVQPGGSLRLSCAASGFNLYYYYMHWVRQAPGKGLEWVASIYPSSGSTSYADSVKGRFTISADTSKNTAYLQMNSLRAEDTAVYYCARGALDYWGQGTLVTVSS
VL: DIQMTQSPSSLSASVGDRVTITCRASQSVSSAVAWYQQKPGKAPKLLIYSASSLYSGVPSRFSGSRSGTDFTLTISSLQPEDFATYYCQQWYSSYGLITFGQGTKVEIK
With B3, the “Median fluorescence … FZD4” value in test [1] is 11.86.

B4: Fab-2935: anti-FZD5 Fab with antibody variable region Fv-2935; CDR SEQ ID NOs: 35, 36, 74, 111, 150, 178 (antibody, V domains shown)
VH: B3 VH with L29I, M34I, G99A, L101F
VL: B3 VL with S93G, S94G, G96A
As to B4, the “Median fluorescence … FZD4” value in test [1] came out at 7.3.

B5: Fab-2922: anti-FZD5 Fab with antibody variable region Fv-2922; CDR SEQ ID NOs: 35, 36, 61, 99, 137, 171 (antibody, V domains shown)
VH: B1 VH with F29I, S30Y, S33Y, I34M, Y50S, S53P, S54Y, Y55S, Y59S
VL: B3 VL with W91S, Y92F, S93V, S94Y, Y95P, G96Y
With B5, the “Median fluorescence … FZD4” value in test [1] is listed as 12.75.

B6: Fab-2932: anti-FZD5 Fab with antibody variable region Fv-2932; CDR SEQ ID NOs: 35, 36, 71, 108, 147, 153 (antibody, V domains shown)
VH: B3 VH with L29I, Y30S, Y32S, P53S, S55Y, G56S
VL: B3 VL with S93G, Y95F, G96A
For the molecule B6, the “Median fluorescence … FZD2” value in test [2] amounted to 9.39.

B7: Fab-2903: anti-FZD5 Fab with antibody variable region Fv-2903; CDR SEQ ID NOs: 35, 36, 42, 81, 118, 155 (antibody, V domains shown)
VH: B3 VH with Y30S, M34I, S54Y, G56S, S57Y, L101I
VL: B3 VL with Y92G, S93G, S94G, Y95S, G96S, I98F
As for B7, the “Median fluorescence … FZD2” value in test [2] was 10.84.

B8: Fab-2923: anti-FZD5 Fab with antibody variable region Fv-2923; CDR SEQ ID NOs: 35, 36, 62, 100, 138, 162 (antibody, V domains shown)
VH: B3 VH with P53S, L101M
VL: B3 VL with S93G, S94Y, Y95S, G96A
Consider B8, for which the “Median fluorescence … FZD4” value in test [1] was found to be 10.55.

B9: Fab-2934: anti-FZD5 Fab with antibody variable region Fv-2934; CDR SEQ ID NOs: 35, 36, 73, 110, 149, 155 (antibody, V domains shown)
VH: B3 VH with L29I, Y30S, Y32S, P53S, L101I
VL: B1 VL with S92Y, W93H, G94Y, F95G
In the case of B9, the “Median fluorescence … FZD2” value in test [2] was found to be 6.61.

B10: Fab-2902: anti-FZD5 Fab with antibody variable region Fv-2902; CDR SEQ ID NOs: 35, 36, 41, 80, 117, 153 (antibody, V domains shown)
VH: B3 VH with L29I, Y30S, M34I, Y52S, P53S, G56S
VL: B3 VL with S93A, S94F, Y95G, G96A
As to B10, the “Median fluorescence … FZD4” value in test [1] is given as 10.27.

B11: Fab-2928: anti-FZD5 Fab with antibody variable region Fv-2928; CDR SEQ ID NOs: 35, 36, 67, 105, 143, 175 (antibody, V domains shown)
VH: EVQLVESGGGLVQPGGSLRLSCAASGFNISYSSIHWVRQAPGKGLEWVASIYPSYSSTYYADSVKGRFTISADTSKNTAYLQMNSLRAEDTAVYYCARYYAMDYWGQGTLVTVSS
VL: DIQMTQSPSSLSASVGDRVTITCRASQSVSSAVAWYQQKPGKAPKLLIYSASSLYSGVPSRFSGSRSGTDFTLTISSLQPEDFATYYCQQAFYYPITFGQGTKVEIK
Consider B11, for which, in test [2], the “Median fluorescence … FZD2” value stood at 14.59.

B12: Fab-2901: anti-FZD5 Fab with antibody variable region Fv-2901; CDR SEQ ID NOs: 35, 36, 40, 79, 116, 154 (antibody, V domains shown)
VH: EVQLVESGGGLVQPGGSLRLSCAASGFNISYSYMHWVRQAPGKGLEWVASIYSYSSYTYYADSVKGRFTISADTSKNTAYLQMNSLRAEDTAVYYCARSWYYWSPSSGMDYWGQGTLVTVSS
VL: DIQMTQSPSSLSASVGDRVTITCRASQSVSSAVAWYQQKPGKAPKLLIYSASSLYSGVPSRFSGSRSGTDFTLTISSLQPEDFATYYCQQGGFLITFGQGTKVEIK
With B12, the “Median fluorescence … FZD2” value in test [2] was 13.95.
